Consider eleven molecules from patent publication EP2155781B1.

No end group written: not given here.

The target of assay [1] is adrenomedullin receptors in the lungs of dogs (binding profile of the AM1 receptor, CRLR+RAMP2) (dog). Put plainly: cell-based or functional assay.
Assay [2] shares this target. In words: displacement of iodine-marked hAM in dog lungs.

By IC50 is commonly meant the point on the concentration scale where inhibition reaches its midpoint. Low readings indicate greater potency, high ones weaker potency.

In assay [1], “125I-rAM(1-50), 125I labelled rat adrenomedullin (from UniProt P43145 94-143) (peptide)” came in with a mean single-pass pulmonary extraction of 125I-rAM(1-50) in dogs in vivo (indicator dilution), baseline of 36.4%.
In assay [1], “CGRP (Phoenix Pharmaceuticals) (peptide)” displayed a mean single-pass pulmonary extraction of 125I-rAM(1-50) in dogs after CGRP (100 nmol) of 40.6% and a mean single-pass pulmonary extraction of 125I-rAM(1-50) in dogs, control before CGRP of 44.6%.
“N-terminal acetylated human adrenomedullin (peptide)”: in assay [2], the IC50 was found to be 0.041 nM.
Same read-out and setting: with “hCGRP (from UniProt P06881 83-119) (peptide)” the figure was 440 nM; with “human adrenomedullin hAM(1-52), cyclic (peptide)”, 0.055 nM.
On the same count and under the same terms, next, “linear human adrenomedullin hAM(1-52) (peptide)”: 7.1 nM.
“unlabelled rAM(1-50) (from UniProt P43145 94-143) (peptide)”: the mean single-pass pulmonary extraction of 125I-rAM(1-50) in dogs after administration of unlabelled rAM(1-50) (100 nmol) in assay [1] turned out to be 21.9%.

B1: hAM(13-52) (peptide)
peptide: SFGCRFGTCTVQKLAHQIYQFTDKDKDNVAPRSKISPQGY-NH2
modifications: ends and bridges not checked
For B1, the IC50 in assay [2] came out at 34 nM.

B2: hAM2(16-47) (peptide, UniProt Q7Z4H4 116-147, looked up)
peptide: QVQNLSHRLWQLMGPAGRQDSAPVDPSSPHSY
modifications: ends and bridges not checked
B2 had a 50% inhibitory concentration (IC50) in assay [2] of 980 nM.

B3: hAM2 (peptide, UniProt Q7Z4H4 101-147, looked up)
peptide: TQAQLLRVGCVLGTCQVQNLSHRLWQLMGPAGRQDSAPVDPSSPHSY
For the molecule B3, the concentration for half-maximal inhibition (IC50) in assay [2] turned out to be 480 nM.

B4: hAM(22-52) (peptide)
peptide: TVQKLAHQIYQFTDKDKDNVAPRSKISPQGY-NH2
In turn, B4 displayed a half-maximal inhibitory concentration (IC50) in assay [2] of 810 nM. Also, in assay [1], the mean single-pass pulmonary extraction of 125I-rAM(1-50) in dogs after hAM(22-52) (100 nmol) was determined as 31.4% and the mean single-pass pulmonary extraction of 125I-rAM(1-50) in dogs before hAM(22-52) came to 40%.
